# From publication doi:10.1101/2021.10.18.464377
# Several values for one entry are separate records, joined by “and”; a condition that tells them apart may be missing. Equal values may be shown once.
# Biological target: Synaptotagmin 2 K60A expressed in PC12 or HEK 293 cells (UniProt P29101)
# Test: immunostaining of cells or tissue
# Chain of UniProt P29101 (P29101 whole entry K60A): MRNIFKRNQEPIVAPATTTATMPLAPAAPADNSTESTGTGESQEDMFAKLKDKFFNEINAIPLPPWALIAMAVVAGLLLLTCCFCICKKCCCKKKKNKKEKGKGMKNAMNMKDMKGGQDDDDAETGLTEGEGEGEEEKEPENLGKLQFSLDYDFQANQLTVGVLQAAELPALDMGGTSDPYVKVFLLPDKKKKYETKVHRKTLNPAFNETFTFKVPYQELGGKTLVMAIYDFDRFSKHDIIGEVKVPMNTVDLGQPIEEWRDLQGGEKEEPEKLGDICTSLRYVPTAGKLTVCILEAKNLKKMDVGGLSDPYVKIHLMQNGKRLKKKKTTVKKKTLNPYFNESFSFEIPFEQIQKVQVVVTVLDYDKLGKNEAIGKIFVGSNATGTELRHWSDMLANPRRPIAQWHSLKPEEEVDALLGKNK
substance,measurement,value
Botulinum neurotoxin serotype B (B1 Okra strain) with non-toxic accessory proteins (complex),decrease of BoNT/B binding against SYT2-WT,64% and 69%
